Consider two molecules from US20140322196A1.

Experiment in all cases: cell-based or functional assay
Experiment [1] addresses Hemagglutinin (HA) of Influenza A virus A/Parma/24/09 (Brisbane-like) (oseltamivir-resistant) H1N1 (Influenza A virus A/Parma/24/09 H1N1).
In experiment [2] the target is Hemagglutinin (HA) of Influenza A virus A/Solomon 3/2006 H1N1 (inactivated subunits, vaccine) (Influenza A virus A/Solomon 3/2006 H1N1).
Experiment [3] addresses Hemagglutinin (HA) of Influenza A virus A/Wisconsin/67/2005 H3N2 (inactivated subunits, vaccine) (Influenza A virus A/Wisconsin/67/2005 H3N2).

B1: bLf C-lobe (aa 345-689) (protein)
chain: VVWCAVGPEEQKKCQQWSQQSGQNVTCATASTTDDCIVLVLKGEADALNLDGGYIYTAGKCGLVPVLAENRKSSKHSSLDCVLRPTEGYLAVAVVKKANEGLTWNSLKDKKSCHTAVDRTAGWNIPMGLIVNQTGSCAFDEFFSQSCAPGADPKSRLCALCAGDDQGLDKCVPNSKEKYYGYTGAFRCLAEDVGDVAFVKNDTVWENTNGESTADWAKNLNREDFRLLCLDGTRKPVTEAQSCHLAVAPNHAVVSRSDRAAHVKQVLLHQQALFGKNGKNCPDKFCLFKSETKNLLFNDNTECLAKLGGRPTYEEYLGTEYVTAIANLKKCSTSPLLEACAFLTR
For the molecule B1, the values for the activity on viral hemagglutination (HI) in experiment [1], in experiment [2] and in experiment [3] were 10 nM, 5 pM and 1.2 pM, respectively.

B2: bLf C-lobe (aa 285-689) (protein)
chain: SFQLFGSPPGQRDLLFKDSALGFLRIPSKVDSALYLGSRYLTTLKNLRETAEEVKARYTRVVWCAVGPEEQKKCQQWSQQSGQNVTCATASTTDDCIVLVLKGEADALNLDGGYIYTAGKCGLVPVLAENRKSSKHSSLDCVLRPTEGYLAVAVVKKANEGLTWNSLKDKKSCHTAVDRTAGWNIPMGLIVNQTGSCAFDEFFSQSCAPGADPKSRLCALCAGDDQGLDKCVPNSKEKYYGYTGAFRCLAEDVGDVAFVKNDTVWENTNGESTADWAKNLNREDFRLLCLDGTRKPVTEAQSCHLAVAPNHAVVSRSDRAAHVKQVLLHQQALFGKNGKNCPDKFCLFKSETKNLLFNDNTECLAKLGGRPTYEEYLGTEYVTAIANLKKCSTSPLLEACAFLTR
As to B2, the activity on viral hemagglutination (HI) in experiment [1] was 24 nM; in experiment [2] it was 5 pM; in experiment [3], 1.6 pM.
